Data taken from paper PMC11063343 (Frontiers in Cellular and Infection Microbiology, 2024).
No end group written: not given here. *: point of attachment. Biotin = O=C1N[C@H]2[C@H](CS[C@H]2CCCCC(=O)*)N1

Molecular target: T1, full length SARS-CoV-2 spike protein (SARS-CoV-2, UniProt P0DTC2)
T1 construct: source: bought: ACROBiosystems
Test: SPR
Details: both partners purified

Binder: Biotin-MYCVFNRNEDACRYG (cysteine pairing not given here) [cellugyrin Inner loop 1A peptide]
- Kd: 4.53 mM
